Measurements taken from publication PMC13065467, “Assembly and phosphoregulatory mechanisms of the budding yeast outer kinetochore KMN complex” (The Journal of Cell Biology, 2026).

Legend:
[1] = system: K^HB-RWDM^Dsn1Δ257_Mis12-3A; assay: ITC, Dsn1 peptide titrated into Mis12-3A mutant complex; type: binding, S. cerevisiae; conditions: ratio of ITC KD values, Mis12-3A mutant complex versus K^HB-RWDM^Dsn1Δ257
Description: Dsn1^228–254 and Dsn1^228–254,S240E,S250E peptides were synthesized by Alta BioScience with N-terminal acetylation and C-terminal GSAW extension and amidation. The final sequence of Dsn1^228–254 was […], and Dsn1^228–254,S240E,S250E was […]. All protein complexes and peptides used in a given experiment were dialyzed for a minimum of 16 h and/or buffer-exchanged by size-exclusion chromatography into the same batch of ITC buffer (25 mM HEPES, pH 7.5, 100 mM NaCl, 1 mM TCEP). All experiments were performed using an Auto-iTC200 instrument (Malvern Instruments) at 25°C. In each experiment, 360 μl of protein complex was pipetted into the calorimeter cell. The protein complex loaded into the calorimeter cell contained Knl1c:Mis12c^Mtw1c with Knl1^Spc105_HB-RWD and Dsn1^Δ1–257 and either wild-type Mis12^Mtw1 (K^HB-RWDM ^Dsn1Δ257) or Mis12^Mtw1_E69A,E73A,E77A mutant (K^HB-RWDM ^Dsn1Δ257_Mis12-3A). Wild-type constructs of all other Knl1c and Mis12c^Mtw1c subunits were included. Titration of either the Dsn1^228–254 or Dsn1^228-254,S240E,S250E peptide into the cell was then performed by an initial injection of 0.5 μl, followed by 19 further injections of 2.0 μl each. […] Titrations were performed in duplicate or triplicate, and reported KD and n values were calculated as an average from all replicate results.

[2] = system: K^HB-RWDM^Dsn1Δ257_Δhead1; assay: ITC, Dsn1 peptide titrated into head 1-deleted complex; type: binding, S. cerevisiae; conditions: 25°C, 25 mM HEPES pH 7.5, 100 mM NaCl, 1 mM TCEP, syringe 0.3 mM, cell 0.025 mM, two experiments
[3] = target: T1, Knl1c:Mis12c^Mtw1c complex K^HB-RWDM^2E (full-length Dsn1 with S240E and S250E phosphomimetic mutations) (S. cerevisiae, UniProt P53148 445-917; Q04431 1-385; P40568 1-576; P39731 1-289; P47149 1-201; Q12143 …, S240E | S250E); assay: SEC; 4 μM Knl1c:Mis12c^Mtw1c complex mixed with 4 μM CENP-C^Mif2_1-63 or CENP-QU in KMN buffer, 30 min on ice; Superose 6 3.2/300 in 20 mM HEPES pH 7.5, 150 mM NaCl, 1 mM TCEP; fractions on SDS-PAGE; conditions: both partners purified
T1 construct: Knl1^Spc105_HB-RWD: Knl1^Spc105, S. cerevisiae S288c, residues 445-917; ZWINT^Kre28, S. cerevisiae S288c; no truncation stated; Dsn1^S240E,S250E: full-length Dsn1, S. cerevisiae S288c, with phosphomimetic mutations; Mis12^Mtw1, S. cerevisiae S288c; Nnf1, S. cerevisiae S288c; Nsl1, S. cerevisiae S288c; also called KM^2E; K^HB-RWDM^S240E,S250E; source: High-5 insect cells (baculovirus), purified …

[4] = target: T2, Knl1c:Mis12c^Mtw1c complex K^HB-RWDM^Dsn1Δ226-2E (Dsn1 residues 1–226 deleted, with S240E and S250E … (S. cerevisiae, UniProt P53148 445-917; Q04431 1-385; P40568 227-576; P39731 1-289; P47149 1-201; …, S240E | S250E); assay: as above; conditions: both partners purified
T2 construct: Knl1^Spc105_HB-RWD: Knl1^Spc105, S. cerevisiae S288c, residues 445-917; ZWINT^Kre28, S. cerevisiae S288c; no truncation stated; Dsn1^Δ1–226,S240E,S250E: Dsn1, S. cerevisiae S288c, residues 1-226 deleted, phosphomimetic mutations; Mis12^Mtw1, S. cerevisiae S288c; Nnf1, S. cerevisiae S288c; Nsl1, S. cerevisiae S288c; also called K^HB-RWDM^Dsn1Δ226,S240E,S250E; source: High-5 insect cells …

[5] = target: T3, Knl1c:Mis12c^Mtw1c complex K^HB-RWDM^Dsn1Δ257 (Knl1^Spc105 residues 1–444 and Dsn1 residues 1–257 deleted) (S. cerevisiae, UniProt P53148 445-917; Q04431 1-385; P40568 258-576; P39731 1-289; P47149 1-201; …); assay: as above; conditions: both partners purified
T3 construct: Knl1^Spc105_HB-RWD: Knl1^Spc105, S. cerevisiae S288c, residues 445-917; ZWINT^Kre28, S. cerevisiae S288c; no truncation stated; Mis12^Mtw1, S. cerevisiae S288c; wild-type, no truncation stated; Nnf1, S. cerevisiae S288c; Nsl1, S. cerevisiae S288c; source: High-5 insect cells (two baculoviruses), purified (Strep-Tactin, SEC); copies: + + + + +

KM2E = assay: SPR, binding to KM2E (review history, removed from manuscript); design: species or system S. cerevisiae; conditions: data removed from manuscript, review history only
K^HB-RWDM^Dsn1Δ226 = assay: analytical SEC reconstitution with K^HB-RWDM^Dsn1Δ226; type: binding, S. cerevisiae; conditions: Superose 6 3.2/300, 4 μM each, pH 7.5, Dsn1 residues 1–226 deleted
Description: (§1) To test the effect of deleting or mutating regions of the Dsn1 N-terminal disordered domain on Mis12c^Mtw1c auto-inhibition, 4 μM concentrations of Knl1c:Mis12c^Mtw1c complexes containing Knl1^Spc105_HB-RWD and different Dsn1 constructs were mixed with 4 μM concentrations of either CENP-C^Mif2_1-63 or CENP-QU in KMN buffer. Knl1c:Mis12c^Mtw1c complexes used contained one of the following Dsn1 constructs: K^HB-RWDM, contained full-length and wild-type Dsn1; K^HB-RWDM^S240E,S250E, contained Dsn1^S240E,250E; K^HB-RWDM^Dsn1Δ226, contained Dsn1^Δ1–226; K^HB-RWDM^Dsn1Δ257, contained Dsn1^Δ1–257; K^HB-RWDM^Dsn1Δ226,S240E,S250E, contained Dsn1^Δ1–226,S240E,S250E. Protein mixtures were incubated together on ice for 30 min to attempt to reconstitute a protein complex. 100 μl of individual proteins or protein complexes or reconstitution mixtures was loaded onto a Superose 6 3.2/300 size-exclusion chromatography column (Cytiva) equilibrated in (20 mM HEPES, pH 7.5, 150 mM NaCl, 1 mM TCEP), and 100 μl eluate fractions were collected. Aliquots of each indicated eluate fraction were mixed 1:1 (volume/volume) with 2xLDS-PAGE loading buffer supplied by Thermo Fisher Scientific, supplemented with DTT, boiled for 3 min at 95°C, and analyzed by SDS-PAGE.

K^HB-RWDM^Dsn1Δ257 = assay: analytical SEC reconstitution with K^HB-RWDM^Dsn1Δ257; type: binding, S. cerevisiae; conditions: Superose 6 3.2/300, 4 μM each, pH 7.5, Dsn1 residues 1–257 deleted
Description: as §1

K^HB-RWDM^Dsn1Δ226-2E = assay: analytical SEC reconstitution with K^HB-RWDM^Dsn1Δ226-2E; type: binding, S. cerevisiae; conditions: Superose 6 3.2/300, 4 μM each, pH 7.5, Dsn1 Δ1–226,S240E,S250E
Description: as §1

K^HB-RWDM = assay: analytical SEC reconstitution with K^HB-RWDM; type: binding, S. cerevisiae; conditions: Superose 6 3.2/300, 4 μM each, 20 mM HEPES pH 7.5, 150 mM NaCl, 1 mM TCEP, 30 min on ice
Description: as §1

K^HB-RWDM^2E = assay: analytical SEC reconstitution with K^HB-RWDM^2E; type: binding, S. cerevisiae; conditions: Superose 6 3.2/300, 4 μM each, pH 7.5, full-length Dsn1 S240E,S250E
Description: as §1

[6] = target: Knl1c:Mis12c^Mtw1c complex K^HB-RWDM^Dsn1Δ257_Mis12-3A (K^HB-RWDM^Dsn1Δ257 containing mutant … (S. cerevisiae, UniProt P53148 445-917)); Q04431 1-385; P40568 258-576; P39731 1-289; P47149 1-201; …, E69A | E73A | E77A (construct name; the text of the results says Asp77)); assay: ITC

Ac-PHYIQRTRERKKSIGSQRGRRLSMLASGSAW-NH2 [Dsn1^228-254]
increase of KD versus K^HB-RWDM^Dsn1Δ257 [1]: threefold
binding (ITC) [2]: did not bind

B1: CENP-C^Mif2 residues 1–63 (CENP-C^Mif2_1–63) (domain or fragment, S. cerevisiae, UniProt P35201 1-63, looked up)
chain: MDYMKLGLKSRKTGIDVKQDIPKDEYSMENIDDFFKDDETSLISMRRKSRRKSSLFLPSTLNG
notes: CENP-C^Mif2, S. cerevisiae S288c, residues 1-63; source: E. coli BL-21 CodonPlus-RIL, purified (HisTrap, Ulp1 cleavage, reverse IMAC, Resource S, SEC); not shown: 6xHis-SUMO, N-terminal, cleaved
binding result [3]: binds
binding result [4]: binds
binding result [5]: binds

B2: CENP-C^Mif2_1-63: recombinant N-terminal fragment of S. cerevisiae CENP-C^Mif2 comprising residues 1–63 (protein)
chain: B1 chain
modifications: left off: 6xHis-SUMO, N-terminal, cleaved
Kd (KM2E): 260 nM
binding by SEC (K^HB-RWDM^Dsn1Δ226): did not bind
binding by SEC (K^HB-RWDM^Dsn1Δ257): did interact
binding by SEC (K^HB-RWDM^Dsn1Δ226-2E): sufficient to abolish Mis12c^Mtw1c auto-inhibition
binding by SEC (K^HB-RWDM; full-length wild-type Dsn1): did not bind
binding by SEC (K^HB-RWDM; full-length wild-type Dsn1, listed as CENP-C N-terminus (residues 1-63)): did not
binding by SEC (K^HB-RWDM^2E): sufficient to abolish Mis12c^Mtw1c auto-inhibition
binding by SEC (K^HB-RWDM^2E; listed as CENP-C (residues 1-63)): bound KM2E

Ac-PHYIQRTRERKKSIGSQRGRRLSMLASGSAW-NH2 [Dsn1^228–254 peptide]
Kd [6]: 4060 nM
